The values below are quoted from earlier work in publication PMC7156917.

Usually Kd stands for a measure of binding affinity in units of concentration.

One data set has as its target CXCR4 (Homo sapiens) (UniProt P61073). The data set is described as follows: SPR. On the technique in general: In SPR one partner is held on a chip, and binding of the other changes the refractive index at the surface.
In a further data set the target is CCR5 (Homo sapiens) (UniProt P51681). Description: equilibrium binding assay.
Sequence of UniProt P51681 (P51681 whole entry): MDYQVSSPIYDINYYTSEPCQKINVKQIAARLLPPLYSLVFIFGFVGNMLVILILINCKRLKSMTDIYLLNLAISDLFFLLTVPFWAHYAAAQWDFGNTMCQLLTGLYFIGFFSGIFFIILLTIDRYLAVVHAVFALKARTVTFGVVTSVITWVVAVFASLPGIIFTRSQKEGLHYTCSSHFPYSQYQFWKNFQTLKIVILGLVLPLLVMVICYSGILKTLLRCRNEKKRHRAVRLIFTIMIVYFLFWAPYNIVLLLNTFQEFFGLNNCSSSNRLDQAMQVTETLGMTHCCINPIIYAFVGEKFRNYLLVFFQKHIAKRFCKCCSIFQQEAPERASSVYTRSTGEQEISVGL

Sequence of UniProt P61073 (P61073 whole entry): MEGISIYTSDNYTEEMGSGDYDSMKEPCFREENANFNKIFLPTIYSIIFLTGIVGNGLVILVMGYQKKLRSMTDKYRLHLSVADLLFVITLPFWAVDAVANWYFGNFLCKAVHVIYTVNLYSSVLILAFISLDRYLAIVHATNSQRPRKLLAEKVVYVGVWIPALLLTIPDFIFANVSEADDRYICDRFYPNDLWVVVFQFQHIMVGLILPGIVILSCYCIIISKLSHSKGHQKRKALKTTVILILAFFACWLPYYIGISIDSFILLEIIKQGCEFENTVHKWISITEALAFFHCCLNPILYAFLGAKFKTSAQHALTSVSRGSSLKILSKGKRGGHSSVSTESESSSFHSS

Turning to “HIV Env gp120 gp120 (from UniProt O70902)”, the Kd was 500 nM with CXCR4 (Homo sapiens) and 5 nM in the data set with CCR5 (Homo sapiens).
